Experiments:
Conditions in all cases: glycan lost; control: wild-type mice
[1] = body weight at three months, n=6 per genotype
[2] = heterozygous crosses, observation of homozygous knock-in mice
[3] = breeding homozygous knock-in mice with WT
[4] = TAB1 IP and immunoblot, brain tissue
[5] = heart weight per g body weight, three months

B1: TAB1 (TGF-β activated kinase-1 binding protein-1): S393A (protein)
parent chain: MAAQRRSLLQSEQQPSWTDDLPLCHLSGVGSASNRSYSADGKGTESHPPEDNWLKFRSENNCFLYGVFNGYDGNRVTNFVAQRLSAELLLGQLNTEHTEADVRRVLLQAFDVVERSFLESIDDALAEKASLQSQLPEGVPQHQLPPQYQKILERLKALEREISGGAMAVVAVLLNSKLYVANVGTNRALLCKSTVDGLQVTQLNMDHTTENEDELFRLSQLGLDAGKIKQMGVICGQESTRRIGDYKVKYGYTDIDLLSAAKSKPIIAEPEIHGAQPLDGVTGFLVLMSEGLYKALEAAHGPGQANQEIAAMIDTEFAKQTSLDAVAQAVVDRVKRIHSDTFASGGERAKFCPRHEDMTLLVRNFGYPLGEMSQPTPTPAPGGRVYPVSVPYSSAQSTSKTSVTLSLVMPSQGQMVNGSHSASTLDEATPTLTNQSPTLTLQSTNTHTQSSSSSSDGGLFRSRPAHSLPPGEDGRVEPYVDFAEFYRLWSVDHGEQSVMTAP
no change: other: body weight [1] | other: mouse viability and development [2] | other: fertility [3] | expression_or_secretion [4] | other: heart weight [5]

From paper PMC7333360
